Measurements: PMC11027885, “Utilizing surface plasmon resonance as a novel method for monitoring in-vitro P-glycoprotein efflux” (Frontiers in biophysics, 2024)

Tested on: CCC(=O)C(CC(C)N(C)C)(c1ccccc1)c1ccccc1
Assay: purified protein, by the assay type
Details: other: 50 nM Pgp in liposomes; curve fit

Substance: mouse Pgp (Abcb1a, MDR3) (Mus musculus)
- Km: 28 ± 10 µM
